From patent publication US10596234B2, “Compositions and methods to inhibit viral replication” (priority 2016, dated 2020)
Positions count from the first letter of the chain named. Names and notes keep the numbering of the source.

Legend:
UL37C (571-1123) = target: T1, UL37C (571-1123) (Human herpesvirus 1, UniProt P10221); assay: Cysteine labeling with electrophile and tandem mass spectrometry; format: biochemical, HSV-1; details: for C819 labeled by CNM: 45 minutes
T1 construct: bacterial purified UL37 (571-1123) was treated with N-methylacetamide; His; made in house; host or cells: E. coli BL21(DE3)
Description: […] Samples were then blocked with Iodoacetamide (Sigma) (50 mM) at room temperature for 1 h and subjected to Mass Spectrometry analysis (Poochon Scientific).

RIG-I [1] = assay: Two-dimensional gel electrophoresis of RIG-I deamidation in cells; format: cell-based, human; details: 293T/RIG-I cells transfected with UL37, DON 10 μM
Description: Cells (1×10^6) were lysed in 150 μl rehydration buffer (8 M Urea, 2% CHAPS, 0.5% IPG Buffer, 0.002% bromophenol blue) by three pulses of sonication and whole cell lysates were centrifuged at 20,000 g for 15 min. Supernatants were loaded to IEF strips for focusing with a program comprising: 20 V, 10 h (rehydration); 100 V, 1 h; 500 V, 1 h; 1000 V, 1 h; 2000 V, 1 h; 4000 V, 1 h; 8000 V, 4 h. After IEF, strips were incubated with SDS equilibration buffer (50 mM Tris-HCl [pH8.8], 6 M urea, 30% glycerol, 2% SDS, 0.001% Bromophenol Blue) containing 10 mg/ml DTT for 15 min and then SDS equilibration buffer containing 2-iodoacetamide for 15 min. Strips were washed with SDS-PAGE buffer, resolved by SDS-PAGE, and analyzed by immunoblotting.

PRDIII promoter = assay: Dual-luciferase reporter assay (PRDIII, SeV infection); format: cell-based, human; details: 293T cells, SeV 100 HAU/ml
Description: HEK293T cells, seeded in 24-well plates (˜50% cell density), were transfected with IFN-β, PRDIII (ISRE) or NF-κB reporter plasmid cocktail (50 ng of luciferase reporter plasmid and 5 ng of pRL Renilla luciferase control vector) and expression plasmid (empty plasmid, one or multiple plasmids depending on the experiment) by calcium phosphate precipitation. Cells were infected with SeV (100 HA/ml), HSV-1 for 16 h, transfected with Poly [I:C] for 16 h or directly harvested 30-36 h post transfection. Whole cell lysates were used to determine the activity of firefly luciferase and renilla luciferase by a microplate reader (FLUOstar Omega).

HSV-1 = HSV-1 plaque assay in HEK293 cells stably expressing RIG-I wild-type or mutants; format: cell-based; details: HEK293 stable cells, HSV-1 MOI=0.5
RIG-I [2] = assay: In vitro ATPase activity assay; format: biochemical, human; details: purified RIG-I proteins; for ATPase activity kcat: at physiological ATP concentrations; for ability to hydrolyze ATP: with or without 5′ppp-RNA
Description: (§1) Purified RIG-I or RIG-I mutants were incubated with 5′-ppp-dsRNA (Invivogen) at 37° C. for 20 min in ATPase reaction buffer (50 mM Tris-HCl, pH 7.5, 2.5 mM MgCl2, and ATP. Released phosphates were measured using a PiColorLock™ phosphate detection reagent (Innova Biosciences). For reactions with varying concentrations of ATP, the concentrations of RIG-I proteins and RNA were 20 nM and 80 nM, respectively. For reactions with varying concentrations of the RNA, the concentrations of RIG-I proteins and ATP were 20 nM and 500 μM, respectively.
as §1, with “ATP).” for “ATP.”

[3] = tested on: 5′-triphosphate 19mer dsRNA; assay: RNA electrophoresis mobility shift assay (EMSA); format: binding; details: 32P-labeled 5′-triphosphate 19mer dsRNA
Description: RNA EMSA was performed as previously described (Takahasi et al., 2008). 5′-ppp-dsRNA and control dsRNA were purchased from Invivogen and bottom strands were labeled with γ-[P^32]ATP by T4 polynucleotide kinase (NEB). Purified RIG-I and RIG-I mutants were incubated with dsRNA at room temperature for 15 min. Binding buffer contains 20 mM Tris-HCl (pH=8.0), 1.5 mM MgCl2 and 1.5 mM DTT. Unlabeled ppp-dsRNA was used as competitor at 500-fold in excess. The reaction mixtures were run on 5% native polyacrylamide gels at a constant voltage of 200 V. Gels were dried and subjected to phosphorimaging.

Which “C819 labeled by CNM” value (UL37C (571-1123); CNM 1 μM) does the source give for `O=C(CCl)NCO` [CNM, 2-Chloro-N-(hydroxymethyl) acetamide] here?
The value was 38.3%.

What about the “C819 labeled by CNM” value (UL37C (571-1123); CNM 10 μM) of the same molecule?
Its value is 42.5%.

And the “C850 labeled by CNM” value (UL37C (571-1123); CNM 1 and 10 μM)?
The value was < 10%.

How did the “UL37-induced RIG-I deamidation in cells” value (RIG-I [1]) turn out when `[N-]=[N+]=CC(=O)CC[C@H](N)C(=O)O` [DON, 6-diazo-5-oxo-L-norleucine, reference compound] was run?
The value was “inhibited RIG-I deamidation”.

B1: C850S (protein)
chain: MADRGLPSEAPVVTTSPAGPPSDGPMQRLLASLAGLRQPPTPTAETANGADDPAFLATAKLRAAMAAFLLSGTAIAPADARDCWRPLLEHLCALHRAHGLPETALLAENLPGLLVHRLVVALPEAPDQAFREMEVIKDTILAVTGSDTSHALDSAGLRTAAALGPVRVRQCAVEWIDRWQTVTKSCLAMSPRTSIEALGETSLKMAPVPLGQPSANLTTPAYSLLFPAPFVQEGLRFLALVSNRVTLFSAHLQRIDDATLTPLTRALFTLALVDEYLTTPERGAVVPPPLLAQFQHTVREIDPAIMIPPLEANKMVRSREEVRVSTALSRVSPRSACAPPGTLMARVRTDVAVFDPDVPFLSSSALAVFQPAVSSLLQLGEQPSAGAQQRLLALLQQTWTLIQNTNSPSVVINTLIDAGFTPSHCTHYLSALEGFLAAGVPARTPTGHGLGEVQQLFGCIALAGSNVFGLAREYGYYANYVKTFRRVQGASEHTHGRLCEAVGLSGGVLSQTLARIMGPAVPTEHLASLRRALVGEFETAERRFSSGQPSLLRETALIWIDVYGQTHWDITPTTPATPLSALLPVGQPSHAPSVHLAAATQIRFPALEGIHPNVLADPGFVPYVLALVVGDALRATCSAAYLPRPVEFALRVLAWARDFGLGYLPTVEGHRTKLGALITLLEPAARGGLGPTMQMADNIEQLLRELYVISRGAVEQLRPLVQLQPPPPPEVGTSLLLISMYALAARGVLQDLAERADPLIRQLEDAIVLLRLHMRTLSAFFECRFESDGRRLYAVVGDTPDRLGPWPPEAMGDAVSQYCSMYHDAKRALVASLASLRSVITETTAHLGVSDELAAQVSHEDNVLAVVRREIHGFLSVVSGIHARASKLLSGDQVPGFCFMGQFLARWRRLSACYQAARAAAGPEPVAEFVQELHDTWKGLQTERAVVVAPLVSSADQRAAAIREVMAHAPEDAPPQSPAADRVVLTSRRDLGAWGDYSLGPLGQTTAVPDSVDLSRQGLAVTLSMDWLLMNELLRVTDGVFRASAFRPLAGPESPRDLEVRDAGNSLPAPMPMDAQKPEAYGHGPRQADREGAPHSNTPVEDDEMIPEDTVAPPTDLPLTSYQ
B1 was tested. Which “blockade of SeV-induced PRDIII promoter activation” value (PRDIII promoter) did it give?
The value was “greatly impaired blockade of PRDIII induction by SeV”.

B2: RIG-I-WT: wild-type RIG-I polypeptide, SEQ ID NO. 3 (protein, listed as Homo sapiens)
chain: MTTEQRRSLQAFQDYIRKTLDPTYILSYMAPWFREEEVQYIQAEKNNKGPMEAATLFLKFLLELQEEGWFRGFLDALDHAGYSGLYEAIESWDFKKIEKLEEYRLLLKRLQPEFKTRIIPTDIISDLSECLINQECEEILQICSTKGMMAGAEKLVECLLRSDKENWPKTLKLALEKERNKFSELWIVEKGIKDVETEDLEDKMETSDIQIFYQEDPECQNLSENSCPPSEVSDTNLYSPFKPRNYQLELALPAMKGKNTIICAPTGCGKTFVSLLICEHHLKKFPQGQKGKVVFFANQIPVYEQQKSVFSKYFERHGYRVTGISGATAENVPVEQIVENNDIIILTPQILVNNLKKGTIPSLSIFTLMIFDECHNTSKQHPYNMIMFNYLDQKLGGSSGPLPQVIGLTASVGVGDAKNTDEALDYICKLCASLDASVIATVKHNLEELEQVVYKPQKFFRKVESRISDKFKYIIAQLMRDTESLAKRICKDLENLSQIQNREFGTQKYEQWIVTVQKACMVFQMPDKDEESRICKALFLYTSHLRKYNDALIISEHARMKDALDYLKDFFSNVRAAGFEEIEQDLTQRFEEKLQELESVSRDPSNENPKLEDLCFILQEEYHLNPETITILFVKTRALVDALKNWIEGNPKLSFLKPGILTGRGKTNQNTGMTLPAQKCILDAFKASGDHNILIATSVADEGIDIAQCNLVILYEYVGNVIKMIQTRGRGRARGSKCFLLTSNAGVIEKEQINMYKEKMMNDSILRLQTWDEAVFREKILHIQTHEKFIRDSQEKPKPVPDKENKKLLCRKCKALACYTADVRVIEECHYTVLGDAFKECFVSRPHPKPKQFSSFEKRAKIFCARQNCSHDWGIHVKYKTFEIPVIKIESFVVEDIATGVQTLYSKWKDFHFEKIPFDPAEMSK
For B2, which “reduction of HSV-1 replication / titer” value (HSV-1) is on record?
The value was ~50%.

And the ATPase activity kcat (RIG-I [2])?
The ATPase activity kcat was 944 s⁻¹.

B3: RIG-I-N495D (protein, UniProt O95786 1-925, looked up, variant N495D)
Antiviral innate immune …: B2 chain with N495D, E580D
How did the “RNA-binding (RIG-I:RNA complex formation)” value [3] turn out when B3 was run?
Its value is “comparable RNA-binding affinity to RIG-I-WT”.

And the “ability to hydrolyze ATP” value (RIG-I [2])?
The value was “basal or no ATPase activity”.

B4: RIG-I-N549D (protein, UniProt O95786 1-925, looked up, variant N549D)
Antiviral innate immune …: B2 chain with N549D, E580D
B4 was tested. Which “ability to hydrolyze ATP” value (RIG-I [2]) did it give?
Its value is “basal or no ATPase activity”.

B5: RIG-I-DD (protein)
chain: B2 chain with N495D, N549D
modifications: left off: small tags and cut ends
With B5 as the molecule, how does the “RNA-binding (RIG-I:RNA complex formation)” value [3] read?
The value was “significantly impaired in forming the fast migrating RIG-I:RNA complex”.

And the “reduction of HSV-1 replication / titer” value (HSV-1)?
Its value is “marginal effect”.

What about the ATPase activity kcat (RIG-I [2]) of the same molecule?
The ATPase activity kcat was 32.6 s⁻¹.

And the “ability to hydrolyze ATP” value (RIG-I [2])?
The value was “completely lost its ability to hydrolyze ATP”.
